{"source": "patent US20260015399A1", "about": "(Boehringer Ingelheim, published 2026)", "binders": {"B1": {"name": "Compound 87 (peptide)", "peptide": "Isovaleryl-APEK([Ahx-γGlu-C18 diacid])PEEDATPEELQRYYVPLRHYYNWLTRQRY-NH2", "SMILES": "CC(C)CC(=O)N[C@@H](C)C(=O)N1CCC[C@H]1C(=O)N[C@@H](CCC(=O)O)C(=O)N[C@@H](CCCCNC(=O)CCCCCNC(=O)CC[C@H](NC(=O)CCCCCCCCCCCCCCCCC(=O)O)C(=O)O)C(=O)N1CCC[C@H]1C(=O)N[C@@H](CCC(=O)O)C(=O)N[C@@H](CCC(=O)O)C(=O)N[C@@H](CC(=O)O)C(=O)N[C@@H](C)C(=O)N[C@H](C(=O)N1CCC[C@H]1C(=O)N[C@@H](CCC(=O)O)C(=O)N[C@@H](CCC(=O)O)C(=O)N[C@@H](CC(C)C)C(=O)N[C@@H](CCC(N)=O)C(=O)N[C@@H](CCCNC(=N)N)C(=O)N[C@@H](Cc1ccc(O)cc1)C(=O)N[C@@H](Cc1ccc(O)cc1)C(=O)N[C@H](C(=O)N1CCC[C@H]1C(=O)N[C@@H](CC(C)C)C(=O)N[C@@H](CCCNC(=N)N)C(=O)N[C@@H](Cc1c[nH]cn1)C(=O)N[C@@H](Cc1ccc(O)cc1)C(=O)N[C@@H](Cc1ccc(O)cc1)C(=O)N[C@@H](CC(N)=O)C(=O)N[C@@H](Cc1c[nH]c2ccccc12)C(=O)N[C@@H](CC(C)C)C(=O)N[C@H](C(=O)N[C@@H](CCCNC(=N)N)C(=O)N[C@@H](CCC(N)=O)C(=O)N[C@@H](CCCNC(=N)N)C(=O)N[C@@H](Cc1ccc(O)cc1)C(N)=O)[C@@H](C)O)C(C)C)[C@@H](C)O"}, "B2": {"name": "Compound 88 (peptide)", "peptide": "Isovaleryl-APEK([Ahx-γGlu-C18 diacid])PEEDATPEELQRQYVSLRHYYNWLTRQRY-NH2", "SMILES": "CC(C)CC(=O)N[C@@H](C)C(=O)N1CCC[C@H]1C(=O)N[C@@H](CCC(=O)O)C(=O)N[C@@H](CCCCNC(=O)CCCCCNC(=O)CC[C@H](NC(=O)CCCCCCCCCCCCCCCCC(=O)O)C(=O)O)C(=O)N1CCC[C@H]1C(=O)N[C@@H](CCC(=O)O)C(=O)N[C@@H](CCC(=O)O)C(=O)N[C@@H](CC(=O)O)C(=O)N[C@@H](C)C(=O)N[C@H](C(=O)N1CCC[C@H]1C(=O)N[C@@H](CCC(=O)O)C(=O)N[C@@H](CCC(=O)O)C(=O)N[C@@H](CC(C)C)C(=O)N[C@@H](CCC(N)=O)C(=O)N[C@@H](CCCNC(=N)N)C(=O)N[C@@H](CCC(N)=O)C(=O)N[C@@H](Cc1ccc(O)cc1)C(=O)N[C@H](C(=O)N[C@@H](CO)C(=O)N[C@@H](CC(C)C)C(=O)N[C@@H](CCCNC(=N)N)C(=O)N[C@@H](Cc1c[nH]cn1)C(=O)N[C@@H](Cc1ccc(O)cc1)C(=O)N[C@@H](Cc1ccc(O)cc1)C(=O)N[C@@H](CC(N)=O)C(=O)N[C@@H](Cc1c[nH]c2ccccc12)C(=O)N[C@@H](CC(C)C)C(=O)N[C@H](C(=O)N[C@@H](CCCNC(=N)N)C(=O)N[C@@H](CCC(N)=O)C(=O)N[C@@H](CCCNC(=N)N)C(=O)N[C@@H](Cc1ccc(O)cc1)C(N)=O)[C@@H](C)O)C(C)C)[C@@H](C)O"}, "B3": {"name": "Compound 93 (peptide)", "peptide": "Isovaleryl-APEK([Ahx-γGlu-C18 diacid])PEEDASPEEIQRYYVQLRHYYNWLTRQRY-NH2", "SMILES": "CC[C@H](C)[C@H](NC(=O)[C@H](CCC(=O)O)NC(=O)[C@H](CCC(=O)O)NC(=O)[C@@H]1CCCN1C(=O)[C@H](CO)NC(=O)[C@H](C)NC(=O)[C@H](CC(=O)O)NC(=O)[C@H](CCC(=O)O)NC(=O)[C@H](CCC(=O)O)NC(=O)[C@@H]1CCCN1C(=O)[C@H](CCCCNC(=O)CCCCCNC(=O)CC[C@H](NC(=O)CCCCCCCCCCCCCCCCC(=O)O)C(=O)O)NC(=O)[C@H](CCC(=O)O)NC(=O)[C@@H]1CCCN1C(=O)[C@H](C)NC(=O)CC(C)C)C(=O)N[C@@H](CCC(N)=O)C(=O)N[C@@H](CCCNC(=N)N)C(=O)N[C@@H](Cc1ccc(O)cc1)C(=O)N[C@@H](Cc1ccc(O)cc1)C(=O)N[C@H](C(=O)N[C@@H](CCC(N)=O)C(=O)N[C@@H](CC(C)C)C(=O)N[C@@H](CCCNC(=N)N)C(=O)N[C@@H](Cc1c[nH]cn1)C(=O)N[C@@H](Cc1ccc(O)cc1)C(=O)N[C@@H](Cc1ccc(O)cc1)C(=O)N[C@@H](CC(N)=O)C(=O)N[C@@H](Cc1c[nH]c2ccccc12)C(=O)N[C@@H](CC(C)C)C(=O)N[C@H](C(=O)N[C@@H](CCCNC(=N)N)C(=O)N[C@@H](CCC(N)=O)C(=O)N[C@@H](CCCNC(=N)N)C(=O)N[C@@H](Cc1ccc(O)cc1)C(N)=O)[C@@H](C)O)C(C)C"}, "B4": {"name": "Compound 94 (peptide)", "peptide": "Isovaleryl-APAK([Ahx-γGlu-C18 diacid])PEADASPEELQRYYVELRHYYNWLTRQRY-NH2", "SMILES": "CC(C)CC(=O)N[C@@H](C)C(=O)N1CCC[C@H]1C(=O)N[C@@H](C)C(=O)N[C@@H](CCCCNC(=O)CCCCCNC(=O)CC[C@H](NC(=O)CCCCCCCCCCCCCCCCC(=O)O)C(=O)O)C(=O)N1CCC[C@H]1C(=O)N[C@@H](CCC(=O)O)C(=O)N[C@@H](C)C(=O)N[C@@H](CC(=O)O)C(=O)N[C@@H](C)C(=O)N[C@@H](CO)C(=O)N1CCC[C@H]1C(=O)N[C@@H](CCC(=O)O)C(=O)N[C@@H](CCC(=O)O)C(=O)N[C@@H](CC(C)C)C(=O)N[C@@H](CCC(N)=O)C(=O)N[C@@H](CCCNC(=N)N)C(=O)N[C@@H](Cc1ccc(O)cc1)C(=O)N[C@@H](Cc1ccc(O)cc1)C(=O)N[C@H](C(=O)N[C@@H](CCC(=O)O)C(=O)N[C@@H](CC(C)C)C(=O)N[C@@H](CCCNC(=N)N)C(=O)N[C@@H](Cc1c[nH]cn1)C(=O)N[C@@H](Cc1ccc(O)cc1)C(=O)N[C@@H](Cc1ccc(O)cc1)C(=O)N[C@@H](CC(N)=O)C(=O)N[C@@H](Cc1c[nH]c2ccccc12)C(=O)N[C@@H](CC(C)C)C(=O)N[C@H](C(=O)N[C@@H](CCCNC(=N)N)C(=O)N[C@@H](CCC(N)=O)C(=O)N[C@@H](CCCNC(=N)N)C(=O)N[C@@H](Cc1ccc(O)cc1)C(N)=O)[C@@H](C)O)C(C)C"}, "B5": {"name": "Compound 90 (peptide)", "peptide": "Isovaleryl-APEK([Ahx-γGlu-C18 diacid])PEEDATPEELQRYYVVLRHYYNWLTRQRY-NH2", "SMILES": "CC(C)CC(=O)N[C@@H](C)C(=O)N1CCC[C@H]1C(=O)N[C@@H](CCC(=O)O)C(=O)N[C@@H](CCCCNC(=O)CCCCCNC(=O)CC[C@H](NC(=O)CCCCCCCCCCCCCCCCC(=O)O)C(=O)O)C(=O)N1CCC[C@H]1C(=O)N[C@@H](CCC(=O)O)C(=O)N[C@@H](CCC(=O)O)C(=O)N[C@@H](CC(=O)O)C(=O)N[C@@H](C)C(=O)N[C@H](C(=O)N1CCC[C@H]1C(=O)N[C@@H](CCC(=O)O)C(=O)N[C@@H](CCC(=O)O)C(=O)N[C@@H](CC(C)C)C(=O)N[C@@H](CCC(N)=O)C(=O)N[C@@H](CCCNC(=N)N)C(=O)N[C@@H](Cc1ccc(O)cc1)C(=O)N[C@@H](Cc1ccc(O)cc1)C(=O)N[C@H](C(=O)N[C@H](C(=O)N[C@@H](CC(C)C)C(=O)N[C@@H](CCCNC(=N)N)C(=O)N[C@@H](Cc1c[nH]cn1)C(=O)N[C@@H](Cc1ccc(O)cc1)C(=O)N[C@@H](Cc1ccc(O)cc1)C(=O)N[C@@H](CC(N)=O)C(=O)N[C@@H](Cc1c[nH]c2ccccc12)C(=O)N[C@@H](CC(C)C)C(=O)N[C@H](C(=O)N[C@@H](CCCNC(=N)N)C(=O)N[C@@H](CCC(N)=O)C(=O)N[C@@H](CCCNC(=N)N)C(=O)N[C@@H](Cc1ccc(O)cc1)C(N)=O)[C@@H](C)O)C(C)C)C(C)C)[C@@H](C)O"}}, "molecular_target": "T1, human NPY2 receptor (human, UniProt P49146 1-381)", "T1 construct": "whole, on cells; also called hNPY2-R; hNPY2R", "T1 sequence (looked up)": "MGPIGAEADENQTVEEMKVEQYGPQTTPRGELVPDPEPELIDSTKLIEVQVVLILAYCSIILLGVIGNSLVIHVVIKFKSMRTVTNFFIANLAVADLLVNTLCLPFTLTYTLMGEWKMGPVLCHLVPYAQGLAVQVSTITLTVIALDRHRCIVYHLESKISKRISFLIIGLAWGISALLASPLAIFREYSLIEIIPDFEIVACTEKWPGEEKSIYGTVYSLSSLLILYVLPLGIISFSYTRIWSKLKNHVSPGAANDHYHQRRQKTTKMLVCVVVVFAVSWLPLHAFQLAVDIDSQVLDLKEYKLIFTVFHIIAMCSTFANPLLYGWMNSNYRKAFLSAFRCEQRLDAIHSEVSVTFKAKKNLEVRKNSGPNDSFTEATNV", "test": "RLB: displacement of 125I-PYY(1-36) from hNPY2R membranes", "note": "*1 amine or outer side, *2 acyl side, *3 side chain or, on linkers, in order; H or OH if unused. Side-chain parts run from the residue outwards. The star is where a group is joined. C18 diacid = O=C(O)CCCCCCCCCCCCCCCCC(=O)*; γGlu = O=C(O)[C@H](CCC(=O)[*:2])N[*:1]; Isovaleryl = CC(C)CC(=O)*; Ahx = NCCCCCC(=O)O"}
{"binder": "B1", "values": [{"measurement": "Ki", "result": 22.4, "unit": "nM"}]}
{"binder": "B2", "values": [{"measurement": "Ki", "result": 16.3, "unit": "nM"}]}
{"binder": "B3", "values": [{"measurement": "Ki", "result": 1.71, "unit": "nM"}]}
{"binder": "B4", "values": [{"measurement": "Ki", "result": 0.93, "unit": "nM"}]}
{"binder": "B5", "values": [{"measurement": "Ki", "result": 8.71, "unit": "nM"}]}
